Measured values reported in publication PMC4241985.

Biological target: transmembrane domain of Thermus thermophilus MgtE (278-450) (Thermus thermophilus) (UniProt Q5SMG8)
Assay: crystal structure

stoichiometry N: 2
Substance: transmembrane domain of Thermus thermophilus MgtE (278-450) (from UniProt Q5SMG8 278-450) (domain or fragment)
